# Laboratory results taken from PMC10719372, “Molecular mechanism of phospholipid transport at the bacterial outer membrane interface” (Nature Communications, 2023).
# B1: MlaA^Q205C (of the disulfide-trapped OmpC-MlaA-MlaC complex) (natural protein, E. coli, UniProt P76506 18-251, looked up)
# chain: CASSGTDQQGRSDPLEGFNRTMYNFNFNVLDPYIVRPVAVAWRDYVPQPARNGLSNFTGNLEEPAVMVNYFLQGDPYQGMVHFTRFFLNTILGMGGFIDVAGMANPKLQRTEPHRFGSTLGHYGVGYGPYVQLPFYGSFTLRDDGGDMADGFYPVLSWLTWPMSVGKWTLEGIETRAQLLDSDGLLRCSSDPYIMVREAYFQRHDFIANGGELKPQENPNAQAIQDDLKDIDSE
# modifications: engineered MlaA^Q205C-MlaC^V171C disulfide bond
# notes: MlaA, OM lipoprotein, E. coli; also called MlaA^Cys
# B2: OmpC (natural protein, E. coli, UniProt P06996 22-367, looked up)
# chain: AEVYNKDGNKLDLYGKVDGLHYFSDNKDVDGDQTYMRLGFKGETQVTDQLTGYGQWEYQIQGNSAENENNSWTRVAFAGLKFQDVGSFDYGRNYGVVYDVTSWTDVLPEFGGDTYGSDNFMQQRGNGFATYRNTDFFGLVDGLNFAVQYQGKNGNPSGEGFTSGVTNNGRDALRQNGDGVGGSITYDYEGFGIGGAISSSKRTDAQNTAAYIGNGDRAETYTGGLKYDANNIYLAAQYTQTYNATRVGSLGWANKAQNFEAVAQYQFDFGLRPSLAYLQSKGKNLGRGYDDEDILKYVDVGATYYFNKNMSTYVDYKINLLDDNQFTRDAGINTDNIVALGLVYQF
# notes: OmpC, outer membrane porin, E. coli; In the pull-down with MlaA variants some samples may have held OmpC-His (pDSW206ompC-His) in place of untagged OmpC; also called osmoporin OmpC; trimeric OmpC; source: E. coli BL21(λDE3) ΔompF::kan, over-expressed from pDSW206ompC; in DDM-solubilised lysate (pull-down) and purified with its partners (Ni-NTA, SEC)
# Assays:
# [1] = target: B2; experiment: cryo-EM structure; disulfide-trapped OmpC3-MlaA^Q205C-MlaC^V171C-His in MSP2N2 nanodiscs with E. coli polar lipids; 2.9 Å overall, density of MlaC limited to 5.0-7.0 Å; conditions: both partners purified
# [2] = target: B2; experiment: SEC-MALS; SEC-purified disulfide-trapped OmpC3-MlaA^Cys-MlaC^Cys-His at 3 mg/ml, Superdex 200 Increase 10/300 GL, TBS pH 8.0 with 0.025% DDM, protein-conjugate analysis; conditions: both partners purified
# [3] = target: the molecule itself; experiment: as above
Binder,stoichiometry N [1],stoichiometry N [2],stoichiometry N [3]
B1,1 to 3 per OmpC trimer,~2 per OmpC trimer,
B2,,,3
